# According to US20240376170A1 (BRIGHT PEAK THERAPEUTICS, published 2024):
# “And” between values parts separate entries of the source, which are not always exact repeats. Equal entries are not always repeated. Primed or numbered codes have the meaning given here. [ ]: non-standard residue; d: D form. Ygp = O-(8x polyethylene glycol-amino)-tyrosine (Tyr, amino-capped PEG8); Yn3 = O-(9x polyethylene glycol-azido)-tyrosine (Tyr, azide-capped PEG9); Ygp″ = O-(8x polyethylene glycol-amino)-tyrosine; Yn3″ = O-(9x polyethylene glycol-azido)-tyrosine; Ygp(3) = O-(PEG8-amino)-tyrosine; Yn3(3) = O-(PEG9-azido)-tyrosine; hSer = N[C@@H](CCO)C(=O)O; Nle = CCCC[C@H](N)C(=O)O
# T1: IL-2 receptor βγ complex on human T cells (human, UniProt P14784 27-551; P31785 23-369)
# T1 sequence (looked up) 1: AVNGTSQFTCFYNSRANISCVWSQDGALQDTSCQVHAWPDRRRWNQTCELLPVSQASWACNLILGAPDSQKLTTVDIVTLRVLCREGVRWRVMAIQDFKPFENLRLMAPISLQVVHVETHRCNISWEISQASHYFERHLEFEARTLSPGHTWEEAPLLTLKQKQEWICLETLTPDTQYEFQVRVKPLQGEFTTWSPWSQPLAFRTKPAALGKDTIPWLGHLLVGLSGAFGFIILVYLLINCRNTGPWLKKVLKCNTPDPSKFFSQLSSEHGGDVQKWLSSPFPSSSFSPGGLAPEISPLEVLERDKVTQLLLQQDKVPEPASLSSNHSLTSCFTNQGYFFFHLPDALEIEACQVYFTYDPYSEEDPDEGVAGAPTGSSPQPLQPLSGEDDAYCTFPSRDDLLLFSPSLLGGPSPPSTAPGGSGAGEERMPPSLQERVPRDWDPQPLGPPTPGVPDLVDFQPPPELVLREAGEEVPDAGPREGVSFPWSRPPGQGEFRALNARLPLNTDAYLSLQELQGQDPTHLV
# T1 sequence (looked up) 2: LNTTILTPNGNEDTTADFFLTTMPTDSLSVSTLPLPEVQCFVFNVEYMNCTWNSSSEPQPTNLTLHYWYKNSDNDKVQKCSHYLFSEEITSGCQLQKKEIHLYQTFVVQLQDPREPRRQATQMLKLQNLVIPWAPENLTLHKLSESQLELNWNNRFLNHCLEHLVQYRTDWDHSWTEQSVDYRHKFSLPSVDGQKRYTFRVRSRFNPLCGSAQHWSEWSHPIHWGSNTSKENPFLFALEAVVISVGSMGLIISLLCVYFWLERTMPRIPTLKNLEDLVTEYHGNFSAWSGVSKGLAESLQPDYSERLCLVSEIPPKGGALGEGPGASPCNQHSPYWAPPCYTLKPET
# T2: IL-2 receptor βγ complex on C57BL/6 mouse splenocytes (mouse, UniProt P16297 27-539; P34902 23-369)
# T2 sequence (looked up) 1: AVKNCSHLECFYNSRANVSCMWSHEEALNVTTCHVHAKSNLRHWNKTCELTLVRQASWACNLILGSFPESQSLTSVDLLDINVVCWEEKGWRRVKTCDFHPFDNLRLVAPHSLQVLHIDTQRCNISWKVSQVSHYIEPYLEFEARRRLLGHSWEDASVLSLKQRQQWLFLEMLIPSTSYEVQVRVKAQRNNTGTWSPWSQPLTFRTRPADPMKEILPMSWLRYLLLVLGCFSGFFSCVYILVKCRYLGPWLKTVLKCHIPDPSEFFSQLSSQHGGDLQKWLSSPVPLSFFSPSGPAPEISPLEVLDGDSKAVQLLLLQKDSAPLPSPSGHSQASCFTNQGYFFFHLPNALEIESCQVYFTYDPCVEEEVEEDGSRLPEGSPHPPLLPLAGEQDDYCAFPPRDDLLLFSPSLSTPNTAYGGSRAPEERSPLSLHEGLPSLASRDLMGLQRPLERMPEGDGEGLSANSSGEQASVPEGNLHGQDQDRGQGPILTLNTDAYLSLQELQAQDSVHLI
# T2 sequence (looked up) 2: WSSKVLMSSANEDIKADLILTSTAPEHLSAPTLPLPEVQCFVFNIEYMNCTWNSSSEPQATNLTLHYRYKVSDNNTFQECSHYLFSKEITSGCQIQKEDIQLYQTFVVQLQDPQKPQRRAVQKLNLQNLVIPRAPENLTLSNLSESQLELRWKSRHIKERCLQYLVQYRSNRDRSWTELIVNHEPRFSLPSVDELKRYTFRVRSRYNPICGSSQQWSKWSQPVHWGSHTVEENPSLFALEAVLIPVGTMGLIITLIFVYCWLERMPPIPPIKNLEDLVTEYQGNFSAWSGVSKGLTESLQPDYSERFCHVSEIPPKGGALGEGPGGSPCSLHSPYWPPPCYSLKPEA
# T3: IL-2 receptor βγ complex (human, UniProt P14784 27-551; P31785 23-369)
# T3 sequence (looked up) 1: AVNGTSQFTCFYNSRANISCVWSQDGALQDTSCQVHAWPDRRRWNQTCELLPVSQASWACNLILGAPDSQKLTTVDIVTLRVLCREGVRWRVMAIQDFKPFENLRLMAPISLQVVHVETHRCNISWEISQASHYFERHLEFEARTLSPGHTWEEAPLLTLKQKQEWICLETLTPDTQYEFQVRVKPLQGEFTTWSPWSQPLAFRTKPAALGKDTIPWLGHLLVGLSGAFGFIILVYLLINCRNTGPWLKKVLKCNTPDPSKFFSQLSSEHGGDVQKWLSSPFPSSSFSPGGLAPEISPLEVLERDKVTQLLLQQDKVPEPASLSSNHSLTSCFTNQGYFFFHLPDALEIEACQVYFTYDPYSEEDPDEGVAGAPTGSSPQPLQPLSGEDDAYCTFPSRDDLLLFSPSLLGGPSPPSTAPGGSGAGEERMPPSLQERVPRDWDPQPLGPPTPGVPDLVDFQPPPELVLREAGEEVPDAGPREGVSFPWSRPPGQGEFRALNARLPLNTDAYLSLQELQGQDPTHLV
# T3 sequence (looked up) 2: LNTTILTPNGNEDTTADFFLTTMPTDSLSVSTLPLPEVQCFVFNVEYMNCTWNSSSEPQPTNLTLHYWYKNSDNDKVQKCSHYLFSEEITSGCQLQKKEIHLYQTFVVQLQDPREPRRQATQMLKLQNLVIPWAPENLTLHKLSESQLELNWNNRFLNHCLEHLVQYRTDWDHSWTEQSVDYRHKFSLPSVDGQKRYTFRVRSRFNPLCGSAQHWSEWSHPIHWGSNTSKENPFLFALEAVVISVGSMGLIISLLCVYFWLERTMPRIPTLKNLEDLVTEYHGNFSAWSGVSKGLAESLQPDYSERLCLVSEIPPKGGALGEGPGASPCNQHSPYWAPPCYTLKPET
# Legend:
# Assay in all cases: cell-based or functional assay
# [1] = target: T1, IL-2 receptor βγ complex on human T …
# [2] = target: T2, IL-2 receptor βγ complex on C57BL/6 …
# IL-2 receptor βγ complex [3] = target: T3, IL-2 receptor βγ complex
# IL-2 receptor βγ complex [4] = target: T3, IL-2 receptor βγ complex; remark: listed apart in the source
Binder,"Average EC50, pSTAT5 Assay (T cells), MMP2 cleaved molecule [1] [nM]","Average EC50, pSTAT5 Assay in mouse splenocytes [2] [nM]","Average EC50, pSTAT5 Assay in NK cells (IL-2 receptor βγ complex [4])",other results
"CMP-147, MMP2 cleaved (ligand, also: MMP2-cleaved form, remnant not given here, Lys13 side chain attached moiety) APTSSSTKKTQLKLEHLLLDLQ[Nle]ILNGINNYKNPKLTR[Nle]L[hSer][Yn3(3)]KF[Ygp(3)][Nle]PKKATELKHLQCLEEELKPLEEVL[hSer]LAQSKNFHLRPRDLISNINVIVLELKGSETTF[hSer]CEYADETATIVEFLNRWITFSQSIISTLT",1.29,–,–,–
"CMP-148 (ligand, also: further groups not given here) APTSSSTKKTQLQLKHLLLDLQ[Nle]ILNGINNYKNPKLTR[Nle]L[hSer][Yn3(3)]KF[Ygp(3)][Nle]PKKATELKHLQCLEEELKPLEEVL[hSer]LAQSKNFHLRPRDLISNINVIVLELKGSETTF[hSer]CEYADETATIVEFLNRWITFSQSIISTLT",–,–,–,"Average EC50, pSTAT5 Assay (T cells), intact molecule [1]: 3.57 nM"
"CMP-148, MMP2 cleaved (ligand, also: MMP2-cleaved form, remnant not given here, Lys15 side chain attached moiety) APTSSSTKKTQLQLKHLLLDLQ[Nle]ILNGINNYKNPKLTR[Nle]L[hSer][Yn3(3)]KF[Ygp(3)][Nle]PKKATELKHLQCLEEELKPLEEVL[hSer]LAQSKNFHLRPRDLISNINVIVLELKGSETTF[hSer]CEYADETATIVEFLNRWITFSQSIISTLT",0.95,–,–,–
"CMP-149 (ligand, also: further groups not given here) APTSSSTKKTQLQLEHLLKDLQ[Nle]ILNGINNYKNPKLTR[Nle]L[hSer][Yn3(3)]KF[Ygp(3)][Nle]PKKATELKHLQCLEEELKPLEEVL[hSer]LAQSKNFHLRPRDLISNINVIVLELKGSETTF[hSer]CEYADETATIVEFLNRWITFSQSIISTLT",–,–,–,"Average EC50, pSTAT5 Assay (T cells), intact molecule [1]: 46.7 nM"
"CMP-149, MMP2 cleaved (ligand, also: MMP2-cleaved form, remnant not given here, Lys19 side chain attached moiety) APTSSSTKKTQLQLEHLLKDLQ[Nle]ILNGINNYKNPKLTR[Nle]L[hSer][Yn3(3)]KF[Ygp(3)][Nle]PKKATELKHLQCLEEELKPLEEVL[hSer]LAQSKNFHLRPRDLISNINVIVLELKGSETTF[hSer]CEYADETATIVEFLNRWITFSQSIISTLT",9.56,–,–,–
"CMP-150 (ligand, also: further groups not given here) APTSSSTKKTQLQLEHLLLDLK[Nle]ILNGINNYKNPKLTR[Nle]L[hSer][Yn3(3)]KF[Ygp(3)][Nle]PKKATELKHLQCLEEELKPLEEVL[hSer]LAQSKNFHLRPRDLISNINVIVLELKGSETTF[hSer]CEYADETATIVEFLNRWITFSQSIISTLT",–,–,–,"Average EC50, pSTAT5 Assay (T cells), intact molecule [1]: 6.38 nM"
"CMP-150, MMP2 cleaved (ligand, not fully specified; also: further groups not given here) APTSSSTKKTQLQLEHLLLDLK[Nle]ILNGINNYKNPKLTR[Nle]L[hSer][Yn3(3)]KF[Ygp(3)][Nle]PKKATELKHLQCLEEELKPLEEVL[hSer]LAQSKNFHLRPRDLISNINVIVLELKGSETTF[hSer]CEYADETATIVEFLNRWITFSQSIISTLT",0.45,–,–,–
"CMP-136, MMP2 cleaved molecule (ligand, ends and bridges not checked; also: cleaved by MMP2, cleavage product not defined, N-terminal PEG9 link and Glu29 side-chain attachment of the cleavable peptide not defined) APTSSSTKKTQLQLEHLLLDLQ[Nle]ILNGIENYKNPKLTR[Nle]L[hSer][Yn3]KF[Ygp][Nle]PKKATELKHLQCLEEELKPLEEVL[hSer]LAQSKNFHLRPRDLISNINVIVLELKGSETTF[hSer]CEYADETATIVEFLNRWITFSQSIISTLT",–,84.7,0.277 nM,"Average EC50, pSTAT5 Assay (T cells) (IL-2 receptor βγ complex [3]): 2.4 nM"
"CMP-138, MMP2 cleaved molecule (ligand, ends and bridges not checked; also: cleaved by MMP2, cleavage product not defined, N-terminal PEG4 link and Glu29 side-chain attachment of the cleavable peptide not defined) APTSSSTKKTQLQLEHLLLDLQ[Nle]ILNGIENYKNPKLTR[Nle]L[hSer][Yn3]KF[Ygp][Nle]PKKATELKHLQCLEEELKPLEEVL[hSer]LAQSKNFHLRPRDLISNINVIVLELKGSETTF[hSer]CEYADETATIVEFLNRWITFSQSIISTLT",–,75.1,0.288 nM,"Average EC50, pSTAT5 Assay (T cells) (IL-2 receptor βγ complex [3]): 2.32 nM"
"CMP-151, MMP2 cleaved molecule (ligand, not fully specified; also: cleaved by MMP2, cleavage product not defined, N-terminal glutaryl-PEG9 link and Lys23 side-chain attachment not defined) APTSSSTKKTQLQLEHLLLDLQKILNGINNYKNPKLTR[Nle]L[hSer][Yn3″]KF[Ygp″][Nle]PKKATELKHLQCLEEELKPLEEVL[hSer]LAQSKNFHLRPRDLISNINVIVLELKGSETTF[hSer]CEYADETATIVEFLNRWITFSQSIISTLT",–,89.2,0.352 nM,"Average EC50, pSTAT5 Assay (T cells) (IL-2 receptor βγ complex [3]): 1.81 nM"
"CMP-145, MMP2 cleaved molecule (ligand, ends and bridges not checked; also: Lys23 side chain attached to another sequence (cleavable peptide), cut by MMP2, product not given here) APTSSSTKKTQLQLEHLLLDLQKILNGINNYKNPKLTR[Nle]L[hSer][Yn3]KF[Ygp][Nle]PKKATELKHLQCLEEELKPLEEVL[hSer]LAQSKNFHLRPRDLISNINVIVLELKGSETTF[hSer]CEYADETATIVEFLNRWITFSQSIISTLT",–,55.2,82 pM and 0.246 nM,–
"CMP-003 (ligand, ends and bridges not checked) APTSSSTKKTQLQLEHLLLDLQ[Nle]ILNGINNYKNPKLTR[Nle]L[hSer][Yn3]KF[Ygp][Nle]PKKATELKHLQCLEEELKPLEEVL[hSer]LAQSKNFHLRPRDLISNINVIVLELKGSETTF[hSer]CEYADETATIVEFLNRWITFSQSIISTLT",–,24,–,–
"CMP-003, MMP2 treated (ligand, ends and bridges not checked) APTSSSTKKTQLQLEHLLLDLQ[Nle]ILNGINNYKNPKLTR[Nle]L[hSer][Yn3]KF[Ygp][Nle]PKKATELKHLQCLEEELKPLEEVL[hSer]LAQSKNFHLRPRDLISNINVIVLELKGSETTF[hSer]CEYADETATIVEFLNRWITFSQSIISTLT",–,45.7,–,–
